Results from the supplement of paper PMC9233669.
This sample holds only a part of the variants without activity.

Assays:
[1] = test system: biotinyl-Ile-oxazolone; test: self-aminoacylation, catalytic enhancement (BIO) (fold over background); higher = more active; k-Seq, kA / k0A0; sequences stand for … in GGGAAUGGAUCCACAUCUACGAAUUC…UUCACUGCAGACUUGACGAAGCUG
In short: (§1)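 Catalytic enhancement equals the median kA over the uncatalyzed rate, the latter read from the low-activity peak of a bimodal Gaussian fit. Values of kA came from fitting each sequence's fraction reacted to a pseudo-first-order model, with 1000 bootstraps. Reacted RNA was captured with streptavidin and quantified by triplicate qPCR and Illumina sequencing after 90 minutes at room temperature with 2–1250 μM biotinyl-aminoacyl-oxazolone and 0.43 μM mutagenized RNA pools bearing a 21-nt variable region.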

[2] = test system: biotinyl-Trp-oxazolone; test: self-aminoacylation, catalytic enhancement (BWO) (fold over background); higher = more active; k-Seq, kA / k0A0; sequences stand for … in GGGAAUGGAUCCACAUCUACGAAUUC…UUCACUGCAGACUUGACGAAGCUG
In short: as §1

[3] = test system: biotinyl-Met-oxazolone; test: self-aminoacylation, catalytic enhancement (BMO) (fold over background); higher = more active; k-Seq, kA / k0A0; sequences stand for … in GGGAAUGGAUCCACAUCUACGAAUUC…UUCACUGCAGACUUGACGAAGCUG
In short: as §1

[4] = test system: biotinyl-Val-oxazolone; test: self-aminoacylation, catalytic enhancement (BVO) (fold over background); higher = more active; k-Seq, kA / k0A0; sequences stand for … in GGGAAUGGAUCCACAUCUACGAAUUC…UUCACUGCAGACUUGACGAAGCUG
In short: as §1

[5] = test system: biotinyl-Phe-oxazolone; test: self-aminoacylation, catalytic enhancement (BFO) (fold over background); higher = more active; k-Seq, kA / k0A0; sequences stand for … in GGGAAUGGAUCCACAUCUACGAAUUC…UUCACUGCAGACUUGACGAAGCUG
In short: as §1

[6] = test system: biotinyl-Leu-oxazolone; test: self-aminoacylation, catalytic enhancement (BLO) (fold over background); higher = more active; k-Seq, kA / k0A0; sequences stand for … in GGGAAUGGAUCCACAUCUACGAAUUC…UUCACUGCAGACUUGACGAAGCUG
In short: as §1

| Sequence | self-aminoacylation [1] | self-aminoacylation [2] | self-aminoacylation [3] | self-aminoacylation [4] | self-aminoacylation [5] | self-aminoacylation [6] |
| --- | --- | --- | --- | --- | --- | --- |
| AAGUUUGCUAAUGAUCGCAAG [Fam3.1 aminoacylation ribozyme variant] | 0.697 | 0.749 | 0.488 | 0.603 | 0.952 | 0.52 |
| AUUACUCUGGUAAUCGAGUGA [Fam2.1 aminoacylation ribozyme variant] | 3.66 | 9.06 | 7.65 | 3.46 | 45.5 | 8.85 |
| CUAAUUCAAACAAUCUGUCUG [Fam1A.1 aminoacylation ribozyme variant] | 0.784 | 0.748 | 0.64 | 0.665 | 1.1 | 0.525 |
| CCACGCUUCAAGCAAUCGCUC [Fam1B.1 aminoacylation ribozyme variant] | 0.955 | 1.13 | 0.927 | 1.42 | 0.605 | 0.929 |
| AUUCACGUAGUUCAUCGGGUG [Fam2.2 aminoacylation ribozyme variant] | 3.07 | 4.72 | 3.49 | 3.45 | 21.9 | 3.88 |
| AUUCACGCAGGUCAUCGGGUG [Fam2.2 aminoacylation ribozyme variant] | 3.54 | 5.58 | 4.55 | 4.58 | 41.6 | 4.77 |
| GAGUGUGCUAAUAGUCGCAAG [Fam3.1 aminoacylation ribozyme variant] | 1.77 | 3.11 | 1.51 | 1.57 | 9.21 | 1.36 |
| AUUACUCUGGUCAUCGAGAGA [Fam2.1 aminoacylation ribozyme variant] | 0.907 | 0.523 | 0.867 | 0.908 | 1.03 | 0.713 |
| AUUCACCUAGGUGCUCGGGUG [Fam2.2 aminoacylation ribozyme variant] | 3.07 | 3.64 | 3.67 | 3.1 | 31.1 | 4.46 |
| UAGUUUGCUAAUAGUCGCAAC [Fam3.1 aminoacylation ribozyme variant] | 1.25 | 1.34 | 1.18 | 1.31 | 1.43 | 1.06 |
| AUUCACGUAGGUCGUCGGGUG [Fam2.2 aminoacylation ribozyme variant] | 2.61 | 2.44 | 2.48 | 3.81 | 9.34 | 2.35 |
| AUUAACCUGGUCAUCAAGUGA [Fam2.1 aminoacylation ribozyme variant] | 1.76 | 3.18 | 3.1 | 1.85 | 4.41 | 2.94 |
| CUACUUCAUACAAUCGGUAUG [Fam1A.1 aminoacylation ribozyme variant] | 0.431 | 0.34 | 0.508 | 0.731 | 0.628 | 0.468 |
| CCACGCUUCAAGCAAUCGGGC [Fam1B.1 aminoacylation ribozyme variant] | 1.08 | 1.41 | 1.25 | 2.04 | 1.35 | 0.924 |
| CCAGACUUGAAGCAAUCGGUC [Fam1B.1 aminoacylation ribozyme variant] | 1.07 | 1.07 | 1.08 | 1.12 | 0.942 | 1.16 |
| UUCCACCUAGGUCAUCGGGUG [Fam2.2 aminoacylation ribozyme variant] | 5.71 | 7.67 | 7.25 | 5.42 | 48.6 | 7.41 |
| CUACUUCAUACAAUCGGUCUG [Fam1A.1 aminoacylation ribozyme variant] | 0.707 | 0.553 | 0.668 | 0.743 | 0.808 | 0.643 |
| UAGUUUGCUAAUUGUCGCAAG [Fam3.1 aminoacylation ribozyme variant] | 1.25 | 1.51 | 1.29 | 1.17 | 1.62 | 1.39 |
| AUUGCGCUGGUCAUCGAGUGA [Fam2.1 aminoacylation ribozyme variant] | 2.47 | 5.11 | 4.28 | 2.62 | 25.1 | 4.57 |
| AAGUUUCCUAAUAGUCGCAAU [Fam3.1 aminoacylation ribozyme variant] | 2.34 | 2.47 | 1.79 | 1.88 | 4.15 | 2.04 |
| AUUACCCUGGUCAUGGAGCGA [Fam2.1 aminoacylation ribozyme variant] | 1.27 | 1.32 | 1.59 | 1.29 | 3.2 | 1.72 |
| AUUACACUAGUCAUCGAGUGA [Fam2.1 aminoacylation ribozyme variant] | 3.05 | 6.55 | 4.79 | 2.51 | 16.9 | 5.19 |
| AAGUUUGCUUAUAAUCGCAAG [Fam3.1 aminoacylation ribozyme variant] | 0.833 | 1.02 | 0.688 | 0.815 | 1.03 | 0.739 |
| AUUCACCUAGGUCAACGGGUG [Fam2.2 aminoacylation ribozyme variant] | 2.5 | 3.49 | 4.01 | 2.48 | 27.5 | 5.19 |
| AUUCACCUAGCGCAUCGGGUG [Fam2.2 aminoacylation ribozyme variant] | 1.55 | 2.14 | 1.72 | 1.68 | 10 | 2.96 |
| CUACUUCAAACAAUGGGUGUG [Fam1A.1 aminoacylation ribozyme variant] | 1.29 | 0.947 | 1.32 | 1.08 | 0.967 | 1.34 |

| Sequence | self-aminoacylation [1] | self-aminoacylation [2] | self-aminoacylation [3] | self-aminoacylation [4] | self-aminoacylation [5] | self-aminoacylation [6] |
| --- | --- | --- | --- | --- | --- | --- |
| AUUACCCUGUUCCUCGAGUGA [Fam2.1 aminoacylation ribozyme variant] | 2.27 | 4.81 | 3.86 | 2.68 | 11.2 | 3.54 |
| AUUACCCUGGUGAUCGAGCGA [Fam2.1 aminoacylation ribozyme variant] | 2.06 | 1.82 | 1.76 | 1.95 | 5 | 1.93 |
| ACGUUUGCUAAUAGUCGCACG [Fam3.1 aminoacylation ribozyme variant] | 2.43 | 2.13 | 2.53 | 2.05 | 3.42 | 2.26 |
| AUUAACCUGGUCAUCGACUGA [Fam2.1 aminoacylation ribozyme variant] | 0.842 | 0.612 | 0.801 | 0.746 | 0.674 | 0.938 |
| CUACAUCAAACAAUCGGUCGG [Fam1A.1 aminoacylation ribozyme variant] | 0.773 | 0.994 | 0.954 | 0.981 | 1.36 | 1.16 |
| AUGUUUGCUAAUACUCGCAAG [Fam3.1 aminoacylation ribozyme variant] | 0.985 | 0.728 | 0.735 | 0.908 | 0.958 | 0.966 |
| GUUACCCUGGUCAUCGAAUGA [Fam2.1 aminoacylation ribozyme variant] | 1.58 | 2.55 | 1.52 | 1.81 | 1.45 | 1.84 |
| AAGUUUGCUAUUAGUCACAAG [Fam3.1 aminoacylation ribozyme variant] | 1.19 | 1.28 | 1.24 | 1.3 | 1.85 | 1.16 |
| AUUCACUUCGGUCAUCGGGUG [Fam2.2 aminoacylation ribozyme variant] | 5.12 | 7.68 | 7.48 | 5.73 | 55.8 | 10.1 |
| AUUACCCUGGUCAUAAAGUGA [Fam2.1 aminoacylation ribozyme variant] | 4.88 | 13.4 | 11.1 | 5.16 | 43.9 | 10.3 |
| CUACUUCAAACAAACUGUCUG [Fam1A.1 aminoacylation ribozyme variant] | 0.684 | 0.5 | 0.562 | 0.717 | 0.742 | 0.547 |
| CGACACUGCAAGCAAUCGGUC [Fam1B.1 aminoacylation ribozyme variant] | 1.52 | 1.82 | 1.26 | 1.47 | 1.4 | 1.37 |
| AAGUUUGCGAAUACUCGCAAG [Fam3.1 aminoacylation ribozyme variant] | 1.36 | 2.24 | 1.13 | 0.993 | 3.35 | 1.4 |
| AUUACCCUGGGCAUAGAGUGA [Fam2.1 aminoacylation ribozyme variant] | 4.98 | 12.6 | 10.1 | 4.72 | 71.5 | 12.6 |
| AUUCACCUAGAUCAUCGGGUG [Fam2.2 aminoacylation ribozyme variant] | 2.1 | 2.95 | 2.8 | 2.22 | 14.9 | 3.47 |
| CUACUUCAAACACUCGGUCUU [Fam1A.1 aminoacylation ribozyme variant] | 1.71 | 1.18 | 1.81 | 1.74 | 1.56 | 1.49 |
| CUACGACAAACAAUCGGUCUG [Fam1A.1 aminoacylation ribozyme variant] | 0.748 | 0.855 | 0.713 | 0.654 | 1.69 | 0.655 |
| CUACUGCAAACAAUCGGUCUA [Fam1A.1 aminoacylation ribozyme variant] | 0.876 | 0.72 | 0.868 | 0.871 | 0.688 | 0.858 |
| CCACACUUGAAGCAAUCGGAC [Fam1B.1 aminoacylation ribozyme variant] | 0.951 | 0.769 | 0.961 | 1.18 | 0.658 | 0.869 |
| AAUUUUGCCAAUAGUCGCAAG [Fam3.1 aminoacylation ribozyme variant] | 1.78 | 1.8 | 2.31 | 1.69 | 2.34 | 1.8 |
| CUACUUCAAACAAUCGGUUAG [Fam1A.1 aminoacylation ribozyme variant] | 0.706 | 1.46 | 0.591 | 0.614 | 2.89 | 0.493 |
| AAGUUUGCUAAUAGAUGCAAG [Fam3.1 aminoacylation ribozyme variant] | 0.954 | 0.784 | 0.789 | 0.911 | 0.814 | 0.82 |
| CCACACUUCAACCAAUGGGUC [Fam1B.1 aminoacylation ribozyme variant] | 0.685 | 0.377 | 0.499 | 0.759 | 0.603 | 0.593 |
| AUUAACCUGGUCUUCGAGUGA [Fam2.1 aminoacylation ribozyme variant] | 2.4 | 6.87 | 4.3 | 2.71 | 13 | 4.66 |
| CACCACUUCAAGCAAUCGGUC [Fam1B.1 aminoacylation ribozyme variant] | 1.11 | 21.8 | 1.33 | 1.28 | 40.5 | 1.83 |
